From paper PMC11833279, “Versatile Features of an Antibody Mimetic Peptide and Its Variants” (Journal of Peptide Science, 2025)
Non-standard residues stand in square brackets, D forms with d. *: point of attachment. Biotin = O=C1N[C@H]2[C@H](CS[C@H]2CCCCC(=O)*)N1; Ahx = NCCCCCC(=O)O; βAla = NCCC(=O)O

What was measured:
[1] = molecular target: T1, HIV‐1 envelope glycoprotein gp120, strain HxBc2 (HIV-1 strain HxBc2, UniProt P04578 33-511); assay: ELISA; gp120 HxBc2 coated (1.4 μg/mL, 0.1 M phosphate buffer pH 7.4, overnight 4°C), blocked with Ficoll 400; biotinylated peptide in serial threefold dilutions from 400 nM, overnight 4°C; detected with anti-biotin peroxidase; details: both partners purified
[2] = molecular target: T1, HIV‐1 envelope glycoprotein gp120, …; assay: cell-based or functional assay

B1: H1H3s‐R28K (peptide)
chain: Ac-GYKFSNFVIHWG[βAla]G[Ahx]GK(Biotin)G[Ahx]SVGPYSWDDSPQDNYMDS-NH2
modifications: not fully specified; printed as Ac‐GYKFSNFVIHW‐GBGXG‐K*‐GX‐SVGPYSWDDSPQDNYMDS‐NH_2_
B1 was tested, and the EC50 [1] was 7.86 ± 1.35 nM.

B2: H1H3s (peptide)
chain: Ac-GYRFSNFVIHWG[βAla]G[Ahx]GK(Biotin)G[Ahx]SVGPYSWDDSPQDNYMDS-NH2
modifications: not fully specified; printed as Ac‐GYRFSNFVIHW‐GBGXG‐K*‐GX‐SVGPYSWDDSPQDNYMDS‐NH_2_
With B2 the EC50 [1] was 6.46 ± 1.5 nM and the “neutralisation of HIV-1 NL4-3 infection, SEAP reporter CEMx174 cells, IC50” value [2] was 6300 nM.

B3: H1H3s‐allD (peptide)
chain: Ac-G[dY][dR][dF][dS][dN][dF][dV][dI][dH][dW]G[βAla]G[Ahx]G[dK](Biotin)G[Ahx][dS][dV]G[dP][dY][dS][dW][dD][dD][dS][dP][dQ][dD][dN][dY][dM][dD][dS]-NH2
SMILES: CC[C@@H](C)[C@@H](NC(=O)[C@H](NC(=O)[C@@H](Cc1ccccc1)NC(=O)[C@@H](CC(N)=O)NC(=O)[C@@H](CO)NC(=O)[C@@H](Cc1ccccc1)NC(=O)[C@@H](CCCNC(=N)N)NC(=O)[C@@H](Cc1ccc(O)cc1)NC(=O)CNC(C)=O)C(C)C)C(=O)N[C@H](Cc1c[nH]cn1)C(=O)N[C@H](Cc1c[nH]c2ccccc12)C(=O)NCC(=O)NCCC(=O)NCC(=O)NCCCCCC(=O)NCC(=O)N[C@H](CCCCNC(=O)CCCC[C@@H]1SC[C@@H]2NC(=O)N[C@@H]21)C(=O)NCC(=O)NCCCCCC(=O)N[C@H](CO)C(=O)N[C@@H](C(=O)NCC(=O)N1CCC[C@@H]1C(=O)N[C@H](Cc1ccc(O)cc1)C(=O)N[C@H](CO)C(=O)N[C@H](Cc1c[nH]c2ccccc12)C(=O)N[C@H](CC(=O)O)C(=O)N[C@H](CC(=O)O)C(=O)N[C@H](CO)C(=O)N1CCC[C@@H]1C(=O)N[C@H](CCC(N)=O)C(=O)N[C@H](CC(=O)O)C(=O)N[C@H](CC(N)=O)C(=O)N[C@H](Cc1ccc(O)cc1)C(=O)N[C@H](CCSC)C(=O)N[C@H](CC(=O)O)C(=O)N[C@H](CO)C(N)=O)C(C)C
B3 was tested, and the “neutralisation of HIV-1 NL4-3 infection, SEAP reporter CEMx174 cells, IC50” value [2] was 1900 nM.
